Biological target: Cry1Da receptor protein(s) / binding site in Spodoptera frugiperda (fall armyworm) brush border membrane vesicles (Spodoptera frugiperda)
Test: homologous competition: displacement of 0.5 nM 125I-Cry1Da core toxin from 150 ug/mL S. frugiperda BBMV

Cry1Da core toxin protein (non-radiolabeled) (from UniProt P19415 28-594)
IC50: 5 nM
